Laboratory results as given in patent US20260209291A1.

How the values were obtained:
Experiment in all cases: cell-based or functional assay
[1] = target: T1, myostatin (Homo sapiens (Human)) (UniProt O14793)
T1 sequence: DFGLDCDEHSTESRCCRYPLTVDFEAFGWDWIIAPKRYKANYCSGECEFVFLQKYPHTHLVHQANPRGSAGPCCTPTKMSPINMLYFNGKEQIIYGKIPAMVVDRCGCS

activin A (human) = target: T2, activin A (human) (UniProt P08476)
T2 sequence: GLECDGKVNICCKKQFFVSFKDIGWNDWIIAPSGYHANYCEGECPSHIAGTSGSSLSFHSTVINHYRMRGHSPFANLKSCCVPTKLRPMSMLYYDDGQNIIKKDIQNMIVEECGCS

[2] = target: T3, GDF11 (Growth Differentiation Factor 11) (Homo sapiens (Human)) (UniProt O95390)
T3 sequence: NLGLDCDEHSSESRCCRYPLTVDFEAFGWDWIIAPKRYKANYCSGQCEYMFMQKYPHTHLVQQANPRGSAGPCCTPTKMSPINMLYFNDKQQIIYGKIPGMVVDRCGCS

Sequence of VGFR(½)-hFc (Aflibercept) (Fc fusion) (chain): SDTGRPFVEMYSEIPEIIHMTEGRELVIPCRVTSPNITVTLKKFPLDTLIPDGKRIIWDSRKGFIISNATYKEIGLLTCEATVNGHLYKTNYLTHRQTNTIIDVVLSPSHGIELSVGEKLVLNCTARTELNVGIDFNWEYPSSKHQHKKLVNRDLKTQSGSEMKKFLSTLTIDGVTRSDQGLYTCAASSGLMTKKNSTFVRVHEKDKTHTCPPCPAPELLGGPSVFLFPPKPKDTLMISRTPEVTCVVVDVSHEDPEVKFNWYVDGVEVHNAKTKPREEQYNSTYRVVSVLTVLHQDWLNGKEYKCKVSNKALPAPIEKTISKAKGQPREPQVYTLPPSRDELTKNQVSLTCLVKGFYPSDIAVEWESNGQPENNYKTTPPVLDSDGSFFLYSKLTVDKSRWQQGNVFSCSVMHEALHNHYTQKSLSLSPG

“FSD1 (E126A) (single entity produced in E. coli) (from UniProt P19883 93-165)” gave a neutralization of myostatin signaling (pSmad2/3 luciferase reporter bioassay, HEK293) [1] greater than 822 nM and a neutralization of activin A signaling (pSmad2/3 luciferase reporter bioassay, HEK293) (activin A (human)) greater than 822 nM.

In the case of “FSD1 (Q124A) (single entity produced in E. coli) (from UniProt P19883 93-165)”, the neutralization of myostatin signaling (pSmad2/3 luciferase reporter bioassay, HEK293) [1] is reported as greater than 822 nM and the neutralization of activin A signaling (pSmad2/3 luciferase reporter bioassay, HEK293) (activin A (human)) is reported as greater than 822 nM.

“FSD1 (Q124A, E126A) (single entity produced in E. coli) (from UniProt P19883 93-165)” showed a neutralization of myostatin signaling (pSmad2/3 luciferase reporter bioassay, HEK293) [1] greater than 822 nM and a neutralization of activin A signaling (pSmad2/3 luciferase reporter bioassay, HEK293) (activin A (human)) greater than 822 nM.

With TNFR2-hFc (Etanercept) (Fc fusion) the neutralization of GDF11 signaling (pSmad2/3 luciferase reporter bioassay, HEK293) [2] was greater than 8.2 nM, the neutralization of myostatin signaling (pSmad2/3 luciferase reporter bioassay, HEK293) [1] was greater than 8.2 nM and the neutralization of activin A signaling (pSmad2/3 luciferase reporter bioassay, HEK293) (activin A (human)) was greater than 8.2 nM.

In the case of VGFR(½)-hFc (Aflibercept) (Fc fusion), the neutralization of GDF11 signaling (pSmad2/3 luciferase reporter bioassay, HEK293) [2] is reported as greater than 8.2 nM and the neutralization of myostatin signaling (pSmad2/3 luciferase reporter bioassay, HEK293) [1] is reported as greater than 8.2 nM.
